Here are results for 1 molecule from patent US20230341395A1 (GEMINA LABORATORIES, published 2023).

The target in assay [1] is Monoclonal antibody against the SARS-CoV-2 Spike protein (A02038, Genscript).
In assay [2] the target is Monoclonal antibody against the SARS-CoV-2 Nucleocapsid protein (A02039, Genscript).
In assay [3] the target is T1, Recombinant SARS-CoV-2 Spike protein antigen (Z03501, Genscript) (SARS-CoV-2, UniProt P0DTC2 16-685).
T1 construct: also called S antigen; S protein antigen
Description: dot blot dipstick, gold nanoparticles with fusion protein and no antibody.

For assay [4], the target named is T2, Recombinant SARS-CoV-2 Nucleocapsid protein antigen (Z03488, Genscript) (SARS-CoV-2, UniProt P0DTC9 1-419).
T2 construct: also called N protein antigen; Nucleocapsid antigen
The description is as above.

B1: Gold-binding fusion protein EMT-003 (Protein G' - linker - gold binding protein) (other)
chain: MTYKLILNGKTLKGETTTEAVDAATAEKVFKQYANDNGVDGEWTYDDATKTFTVTEKPEVIDASELTPAVTTYKLVINGKTLKGETTTEAVDAATAEKVFKQYANDNGVDGEWTYDDATKTFTVTEKPEVIDASELTPAVTTYKLVINGKTLKGETTTKAVDAETAEKAFKQYANDNGVDGVWTYDDATKTFTVTEGGGGSGGGGSGGGGSASGGGMHGKTQATSGTIQSMHGKTQATSGTIQSMHGKTQATSGTIQSMHGKTQATSGTIQSMHGKTQATSGTIQSMHGKTQATSGTIQSMHGKTQATSGTIQS
notes: also called EMT-03; gold fusion protein
By Kd is commonly meant the free concentration of one partner at which half of the binding sites on the other are occupied at equilibrium, for simple one-to-one binding. A low value points to tighter binding. One may read the koff as a measure of how fast the partners let go of each other. A word on the kon: it is the rate constant with which the complex forms. A higher kon goes with fast association. With B1, the Kd worked out at 192 pM in assay [1] and 258 pM in assay [2]. For the same molecule, the koff in assay [1] worked out at 0.000103 s⁻¹; in assay [2], 0.000149 s⁻¹. The kon in assay [1] is 537000 M⁻¹ s⁻¹; in assay [2] it was 577000 M⁻¹ s⁻¹. Moreover, the binding result in assay [3] and in assay [4] was “no binding (tested: 0.5 µg antigen spotted)” in each case.
